The source of these data is publication PMC10827105.

Data set [1] concerns the target CifRTR (CifR C99T/C181R) (Pseudomonas aeruginosa). The data set is described as follows: SEC. A general note: Size exclusion chromatography separates by hydrodynamic size, large species first.
The target is the same in data set [2]. As to the kind of experiment: SEC + AUC.
The target of data set [3] is T1, CifRTR (Pseudomonas aeruginosa, UniProt A0A0H2ZCS5 1-196, C99T;C181R). As to the kind of experiment: EMSA. A general note: Mobility shift assays separate free from complexed probe on a gel.
The target in data set [4] is T1, CifRTR. The data set is described as follows: SEC.
Data set [5] deals with CifRTR-C107S (Pseudomonas aeruginosa, UniProt A0A0H2ZCS5 1-196, C99T;C107S;C181R). The data set is described as follows: X-ray crystallography.
In data set [6] the target is T1, CifRTR. As to the kind of experiment: EMSA. This is another data set of the same source.

Broadly, the stoichiometry N is the number of molecules, sites or subunits per partner or assembly. With “CifRTR (CifR C99T/C181R) (natural protein)”, the stoichiometry N in data set [1] and in data set [2] was 2 each time.

B1: cifR-prox dsDNA23 (dsDNA)
DNA 1: TATTTGTATCGATCACTATAAAT
DNA 2: ATTTATAGTGATCGATACAAATA
As for B1, in data set [3], the binding result is “binds”.

B2: cifR-prox dsDNA26L (dsDNA)
DNA 1: TTATTTGTATCGATCACTATAAATTT
DNA 2: AAATTTATAGTGATCGATACAAATAA
With B2, the binding result in data set [4] and in data set [5] was “binds” each time.

B3: cifR-prox dsDNA36 (dsDNA)
DNA 1: CCTCCATTATTTGTATCGATCACTATAAATTTACTT
DNA 2: AAGTAAATTTATAGTGATCGATACAAATAATGGAGG
Regarding B3, the binding result in data set [6] is listed as “binds”.
